{"source": "a protein production outcome set (Wang et al. 2014)", "experiment": "label from the status in PepcDB records"}
{"sequence": "MHRGKETSTKPKKPVTRRKDFSASGKGKKRKKRRVHKMKPWQIALICVGAFIAALLAFGLMYVYAKWSKIDTKSIKADDIIINEEVKKNKNVDLGDGYTNVALFGVDSRDGDLGEGNRTDCIIVASLNNKTKEIKMVSVYRDTLLDLSEGTYQKCNAAYSYGGPVLAINMLNMNLDLDIQDYVTVDFGAIADAVDLLGGIEIEVTEEELPYINQYIPETANSAGKAANLLQSAGLQKLDGTQATTYARIRSTAGGDFTRTERQRLVIEKMFEKAKGADIGTLNKIIDKVFPQVSTSFTLPEILKYASAYSEYKLVGNMGFPEDKYTDMLSEIGSVVVPDNLVSNVTKLHEFLFGITGYVPSSTVQTVGSNISYTASAKKSSGTGSQSSYDSGESYNDSGYTDNSGNYEGGNTGGNYDDGSMSGNSGNTGNSGETGGVGGNGSTGDNTGGTTVEPPVVPDGGTDSGGGQTEAPPEGTVQ", "values": [{"measurement": "protein production", "result": "failed"}]}
{"sequence": "MPFPSLPSPLARALTERNYAEPTPVQQAVLDAVPERDLLVSAQTGSGKTVAFGLAIAGTLLGEDETLPPPGAPLALVIAPTRELALQVQRELTWLYAQTGARIVPCVGGMDPRREARALEAGVHIVVGTPGRLRDHMERGRLVTEGLRAVILDEADEMLDMGFREDLEFILASTPKDRRTLLFSATLPKAIVALAESYQRDALRLAVAGETRGHADIVYRAVRVMPREVEHAVVNILRYVDAPVAIVFCNTRDGVRHLQASLTERGFSAVALSGELGQGERNAALQALRDGRARVCVATDVAARGIDLPGLDLVIHADLPHDAEVMQHRSGRTGRAGRKGTSVVLVPPAKRRRAEQMFAIAKVSPDWSGPPNADEIRILDRERMMSDPLLAEPETEEDREWEREWAEALMERCPPERLAAAFARLYRSRIPVPEEVSDPAYETSRRPDSRSGVPVGASRVGDDEPAAWFRLNLGRRDRAEPRRLLPMLTRRGQIGRGDIGSIRIFDNETTFEVRASAADDFAASFARRGPADVRVERMQGDGPAAAKAPKSPRAQRHRREATKTGRGG", "values": [{"measurement": "protein production", "result": "failed"}]}
{"sequence": "MVGPLGKPIKVKYYGNVVFASDAVCGQAENYATLKAMKEVGNYTISIQTFENAENVYPEEFLAKPVADEHYLTTEDGSVGIKGHYLDIVKELIEKDKVDIIFAGGKLGSLAKLAELTRPYGIPTYATVRQIMVDGLEHHHHHH", "values": [{"measurement": "protein production", "result": "not failed"}]}
{"sequence": "MDLVAWETLSFPVVSAAFGASAFLIAVVGTRMTRAADRLADETGLGEAIFGAVLLGSTTSIAGITTSVTAAVDGLPSLAISNAIGGIAAQTVFLAVADMAYRPANLEHAAASVENLLQGALLSTLLAIPLLGMAGPRLDLFGIHPASVLLVAGYLYGIHLVAEARSTPYWVARQTDKTRQDTGAEGRESAALSTLWLEFVALSLVVGAAGYVIAKTGGQVAARTGLSEGLVGGLFTAVSTSLPELVTSVAAVRRGALTLAVGGIIGGNSFDVLFVAFSDVGYQEGSIYHAMTEQQVFIIALTLLLTGILLMGLLRRERRGAFGIGFESFLALVLYFGAFGLLFV", "values": [{"measurement": "protein production", "result": "failed"}]}
{"sequence": "MTMRRVKGGLVQAVRVARGGAVAWLSLCMLMVGGQALAQQAITAPASNAVERVEQASTGESTVVTVTLKDTPAQKPVEFSTQQPARIAIDFFGTAFAQGRANYQYGGKLLRAASVVQIGDRTRVVLDLARQSQYKSEIRGNQYVLTLGAAPTASATPVPTFAAPAPTAGVERPSVRNIDFRRGEELAGRVVVDLSTSNSAINIAQQGQNLVVDFAGATLPQSLRRRFDVSDFGTPVQAMRATDNGTGARLVIEPRGNWQYSSYQTDTQFVVEVRPTKEDPNKLISGPGYRGERMSLNFQNIDIRSLLQVFADFTNLNIVTSDSVTGTLSLRLKDVPWDQALQIVLDSKGLASRRNGNVLWVAPRNELATKEKAELESQQQVTELEPLRSQVFRLNYQRADDVRNMLLGTGGTAGGGAAASRILSKRGSLTSDARTNQLFVSDIPSKLEEVQAFLLKIDIPVRQVMIEARIVEADDTFSRNLGAKLGFAAKTNGAGYGNTYSNVVSPVTKDATWDNSAAVSLPANGINGVNAASVAVSLFNAGAGRFLALELSALEADGRGKIISSPRVVTADNIKALIEQGTEVPYQQATSSGATSVSFKKANLKLEVTPKITPDGNVFLDVDVNKDSLGTQTTNGFAINTKHVQTQVLVENGGTVVIGGIYTQNERTDVNKVPLLGDIPVLGNLFKSTAKTNDRTELLVFLTPRVLSDQLSLK", "values": [{"measurement": "protein production", "result": "failed"}]}
{"sequence": "GHMSPGERFLDWLKRLQGQKAWTAARAAFRRSLAFPPGAYPRAMPYVEPFLAKGDWRQEEREAHYLVAALYALKDGDHQVGRTLARALWEKAQGSASVEKRFLALLEADRDQIAFRLRQAVALVEGGIDFARLLDDLLRWFSPERHVQARWAREYYGAGASEEEKKKEVEA", "values": [{"measurement": "protein production", "result": "not failed"}]}
{"sequence": "MNIVSWKDANDEVAGGATTRREREVKEDQEETEVRATSGKTVIKKQPTSISSSSSSWMKSKDPRIVRVSRAFGGKDRHSKVCTLRGLRDRRVRLSVPTAIQLYDLQERLGVDQPSKAVDWLLDAAKEEIDELPPLPISPENFSIFNHHQSFLNLGQRPGQDPTQLGFKINGCVQKSTTTSREENDREKGENDVVYTNNHHVGSYGTYHNLEHHHHHHQHLSLQADYHSHQLHSLVPFPSQILVCPMTTSPTTTTIQSLFPSSSSAGSGTMETLDPRQMVSHFQMPLMGNSSSSSSQNISTLYSLLHGSSSNNGGRDIDNRMSSVQFNRTNSTTTANMSRHLGSERCTSRGSDHHM", "values": [{"measurement": "protein production", "result": "failed"}]}
{"sequence": "MGVVLARGAFRERSMLTLPDFPLPDARGRFGPYGGRYVPETLIPALEELEAAYREAKKDPAFLEELDHYLRQFAGRPTPLYHAKRLSEYWGGAQVFLKREDLLHTGAHKINNTLGQALLARRMGKRRVIAETGAGQHGVSVATVAALFGLECVVYMGEEDVRRQALNVFRMKLLGAEVRPVAAGSRTLKDATNEAIRDWITNVRTTFYILGSVVGPHPYPMMVRDFQSVIGEEVKRQSLELFGRLPDALIAAVGGGSNAIGLFAPFAYLPEGRPKLIGVEAAGEGLSTGRHAASIGAGKRGVLHGSYMYLLYDHDGQITPAHSVSAGLDYPGVGPEHSYYADAGVAEYASVTDEEALEGFKLLARLEGIIPALESAHAIAYAAKVVPEMDKDQVVVINLSGRGDKDVTEVMRLLGGEL", "values": [{"measurement": "protein production", "result": "not failed"}]}
{"sequence": "MTHRPMLNKIKLFFIVQIILSFLVLAGTLISILVIPSHLPDYFIWAIAFSFWVFQCGFSTIFAFRYRISKSSLSTIKLSFILIGSIQILITLATNLFGIFDLPIFNTLIIKNFQFLILSLIFIVMIYKLIKDMLKYRVLKDYIIRDSFFTFIPFAFIIYKNSKYFISSIYFLDDSVYSLALLNINSLRIFLEGFLIILIFVKTIYLRGNKKSSFLLLIYFYVSNLNCYIVSYFNSKLLFSHYLYQGIGIYFICPILLMLSIYHSITEQEKAPDQVLFDDSYMNINNSWISITIGIFPVSFSAIDIISSSIASGDFNGIESLVIILLVMILLVCRDVILRKDNLRLIASVKRANEIDFLTNMYSRNYFLKKLETINTDYALFFIDIKSFKDINNIFGHVVGDKVLVEVANKFKELKLLLGKNVFYCRYSGNEFALISKLDQVDLILKFFRDLENIKIQHNSDLIHINFNIGYSLNDSNINLDLLIQETDYALMRAKKLKGPNNSILMYDDNLKTDLEHMNILKKDFKNDLLTGKFHLVFQPKVCVKTLKIVGFETLLRWKHDKLGEISPSKFVPIAENLGEISSLDLYVFKKSCEFQRCLIDKGIKLKCSVNLSLNTLKSYEKINEILNIYKEYKIPKHLITAEILENVSLNNNAKTISYINLLRENGICISIDDFGTGYSSLSQISNLYFDELKIPREFVIDARTPSKLAVIEAISILAKKLKVTSVIEGVENYEDFKLFSSLGFDIVQGYYFSKPLTKSEIIDYIKVNINNKIS", "values": [{"measurement": "protein production", "result": "failed"}]}
{"sequence": "DKEWNEKELQKLHCAFASLPKHKPGFWSEVAAAVGSRSPEECQRKYMENPRGKGSQKHVT", "values": [{"measurement": "protein production", "result": "not failed"}]}
{"sequence": "KLKKKEYEQELKKLQVELVKLQEWVKHKGLKVVVLFEGRDAAGKGGVIKRITEKLNHRVCRVVALPAPTEKEKTQWYFQRYVAHLPSAGEIVLFDRSWYNRAGVEKVMGFCTPDEYEEFLRSCPEFERMLQRSGIILLKYWFSVSDEEQEKRFLGRINTPIKRWKFSPMDLESRHRWAEYSEAKDKMFAYTDTKNCPWWVVPSDSKQKARLNCISHLLSQIEYKALEYP", "values": [{"measurement": "protein production", "result": "not failed"}]}
{"sequence": "MKKVFDVWDVETAKRFLEIIKDEPIYYPALIALHTGMRAGEILSLKWCDVNFETRVISIVKSERKNRGLKTVNLKTKTSKRAVYMNDILYKELKNLYEITKPKPDDFVCPRLPTGNLTVNYLSRKFKKLVKKHNFPLIRFHDLRHTFATLMLSLGVNTKIVAEILGHSDIKLTADTYSHVLPTMQEEAMKEFVKLWKLEHHHHHH", "values": [{"measurement": "protein production", "result": "not failed"}]}
{"sequence": "AQAEVRIDGPIEYGVFESRYQDFQPGERVLTRSEQNIQQTTEVPAKLGTKFGMRYQLSGKQEGDTPLTLLYLTPGVVTPDGQRHDKFEVVQKLVPGAPTDVMAYEFTEPHEVVKGEWRLMVFQGDRLLAEKSFDVR", "values": [{"measurement": "protein production", "result": "not failed"}]}
{"sequence": "PWQPPADLSGLSIEEVSKSLRFIGLSEDVISFFVTEKIDGNLLVQLTEEILSEDFKLSKLQVKKIMQFING", "values": [{"measurement": "protein production", "result": "not failed"}]}
{"sequence": "MIVTLLAVGAAAAVGAVARYMLDQYVQYRSPGLFPLGTWLINVTGSFVLGLLVGLGARHGLPEQFVPIAGVGFCGAYTTFSTFSYELVHLREKGQVRKSLLYGASSLTAGLLAAAAGLAVESF", "values": [{"measurement": "protein production", "result": "failed"}]}
{"sequence": "MSSTLWIFYDQYVQRATVDGLPTFIGPGEQATLRISSLKNDIQVRDQDGQCLIMTDGEELHTLPSGESCELTIDGKPYSFLYVGEAPSEKKYYMGHANLVTISNEPSANIVLPSDIEMDCTLLCERKEWTLYPKEGTQAPYVNGRKVSIPTQIVDGDEMLFGRVLLKIIEGNILVVESNETYETTLTQVETPTSLMQQQYPIYRRTPRMIYEQPTDKVEFSMPSEEIDDVGRPLWMILLPPVAIIVIMVTISIVFQRTWMLFMSVPIMTVMAVVATTMFFREKKKRKQKEEKRKRVYSRYLEVKRDELQALADAQRHALMYHFPTFEQMKNKARRVSSRIWERTIDNNDFLDIRIGRSSVPASFELNQPSDELSNRDRDELMDDFDRFREKYSHLENAPLRLSVARGALGYVGKPSIVEREVSQIIGQLAFAHSYHDLRFVAILNEEQRKKWEWMNWLPHFQLPGTEAKGFIYDEKACDHILNPLYHMLRERDLAQKETVEKKREKKRFLPHIVFFVANRSLIAEHGIMEYLEGKDKELGFTVIFLTDVAQNLNEHVHTIVKAVNRNEGEIVLLRNISIHKRFQFDAYDPASNENYARMLPSLHHQQGMTRSIPDMVSFMEMFPGVIQAKDLEIKKRWQTNDSTKSLAVPIGLKAKDELLELDAHEKMHGPHGLLAGTTGSGKSEFLQTYILSLAVNYHPHEVAFLLIDYKGGGMAQPFKGMPHLLGVITNIAESENFSARALASIRSELKKRQRLFDEHTVNHINDYTELYKAGTAKEPMPHLFIISDEFAELKNEEPEFIKELVSAARIGRSLGVHLLLATQKPSGVVDGQIWSNSRFRIALKVQNATDSREILKNEDAAYIKETGRGYLQIGSNEQYDLFQSAWSGAQYLRSAHDGEEEIAYVTDLGLKLVSRAEIKEDREQESITEIEAVVNEIAATTDELAIVPAKSPWLDPLEERIFYEATSSEDEAQAFPFALADDPENQRQFPICYDWGKSGNLMIFGTSGYGKSTTLLTLLLAFAEKRSPEQANYYVLDFGNGALLPLRQLRHTGDYIKMDEGRKLEKLIDYIEKEMERRSELFMEREVSNISVYNEVSDEPLPSIFIVIDNYDILPEEFSDQAPAFTRFARDGQSRGIYVFATVTARNAVKPVLLNSMNMKICHYMIEKTDLTSLLGRVPFAIESVPGRMIVAKDKNWLAHTYLPAKGENDFEVIENVKARIQTINDRYEDSKLPKSMAMLPKTLTLTGLRERIKEEPRLGIPLGLNEETVQPVYIDQDAGAHMVIAGEPKRGKSNVLKVILSFYFETDVEKIVLCDGVDRPLFDFSRKDKALYPTNAEELQHAVEELKQVMEERRMQYDEALQAGTEIPQFRPYLFVIDSFNEFKKMLGVSKEPAFAEMMQLYGHLEFRVIVAADHKDVSLGRGGVMGELKSARQLVLLVKKSAQSLVSFTHDRTEKLEDGFGYHVVNGRDTKIKIPEVVKEEAFIHS", "values": [{"measurement": "protein production", "result": "failed"}]}
